# Assay results published in patent US20230144447A1 (published 2023).
# B1: CAR-T22.13 chimeric antigen receptor (anti-CD22 scFv from antibody 16F7, CD8 hinge and transmembrane region, 4-1BB, CD3 zeta), on primary human T cells (other)
# chain: EVQLVQSGAEVKKPGESLKISCKGSGYNFTSYWIGWVRQMPGKGLEWMGIIYPGDSDTRYSPSFQGQVTISADKSISTAYLQWSSLKASDTAMYYCATPTYYFGSVAFDIWGQGTMVTVSSGGGGSGGGGSGGGGSEIVLTQSPDFQSVTPKEKVTITCRASQSIGSSLHWYQQKPDQSPKLLIKYASQSFSGVPSRFSGSGSGTDFTLTINSLEAEDAAAYYCHQSSSLPYTFGQGTKLEIKFVPVFLPAKPTTTPAPRPPTPAPTIASQPLSLRPEACRPAAGGAVHTRGLDFACDIYIWAPLAGTCGVLLLSLVITLYCKRGRKKLLYIFKQPFMRPVQTTQEEDGCSCRFPEEEEGGCELRVKFSRSADAPAYQQGQNQLYNELNLGRREEYDVLDKRRGRDPEMGGKPRRKNPQEGLYNELQKDKMAEAYSEIGMKGERRRGKGHDGLYQGLSTATKDTYDALHMQALPPR
# notes: CAR on the membrane of lentivirus-transduced T cells; also called CART-CD22.13; CAR22.13
# B2: CAR-T22.14 chimeric antigen receptor (anti-CD22 scFv from antibody 4G6, CD8 hinge and transmembrane region, 4-1BB, CD3 zeta), on primary human T cells (other)
# chain: QVQLVQSGAEVKKPGSSVKVSCKPSGDTFSNYAISWVRQAPGQGLEWMGRIIPILGMAIYAPKFQGRVTITADKSTNTAFMDLTSLYFEDTAVYYCARAPTYWGSKDYFDYWGQGTLVTVSSGGGGSGGGGSGGGGSAIQLTQSPSSLSASVGDRVTITCRASQDISSGLAWYQQKPGTAPKLLIYDASSLESGVPSRFSGSGSGTDFTLTISSLQPDDFATYYCQQFNSFPYTFGQGTKLEIKFVPVFLPAKPTTTPAPRPPTPAPTIASQPLSLRPEACRPAAGGAVHTRGLDFACDIYIWAPLAGTCGVLLLSLVITLYCKRGRKKLLYIFKQPFMRPVQTTQEEDGCSCRFPEEEEGGCELRVKFSRSADAPAYQQGQNQLYNELNLGRREEYDVLDKRRGRDPEMGGKPRRKNPQEGLYNELQKDKMAEAYSEIGMKGERRRGKGHDGLYQGLSTATKDTYDALHMQALPPR
# notes: CAR on the membrane of lentivirus-transduced T cells; also called CART-CD22.14; CAR22.14
# Molecular target: T1, recombinant human CD22 protein with Fc segment (staining reagent) (human, UniProt P20273 20-687)
# T1 construct: Reagent used for flow cytometry staining of the CAR; also called Fc fragment of a recombinant human CD22 protein; Fc segment of recombinant human CD22 protein; not shown: Fc segment
# T1 sequence (looked up): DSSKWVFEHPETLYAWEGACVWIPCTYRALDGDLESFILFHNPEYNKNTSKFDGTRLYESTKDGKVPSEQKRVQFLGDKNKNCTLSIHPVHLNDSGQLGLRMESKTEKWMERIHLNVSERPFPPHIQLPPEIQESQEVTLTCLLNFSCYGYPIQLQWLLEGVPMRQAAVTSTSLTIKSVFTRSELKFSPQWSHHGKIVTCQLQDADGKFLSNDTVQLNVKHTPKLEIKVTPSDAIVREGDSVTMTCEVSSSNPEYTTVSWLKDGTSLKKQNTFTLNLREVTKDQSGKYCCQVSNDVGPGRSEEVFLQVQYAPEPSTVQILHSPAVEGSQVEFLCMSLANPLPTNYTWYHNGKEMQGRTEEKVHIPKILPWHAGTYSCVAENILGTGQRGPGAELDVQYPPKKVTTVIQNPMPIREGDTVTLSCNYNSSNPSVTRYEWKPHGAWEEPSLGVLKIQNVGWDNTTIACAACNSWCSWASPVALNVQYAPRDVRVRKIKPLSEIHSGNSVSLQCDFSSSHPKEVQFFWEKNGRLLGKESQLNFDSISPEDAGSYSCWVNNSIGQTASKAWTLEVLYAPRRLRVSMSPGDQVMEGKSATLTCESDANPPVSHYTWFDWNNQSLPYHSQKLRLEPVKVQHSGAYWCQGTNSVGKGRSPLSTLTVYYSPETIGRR
# Test: flow cytometry of CAR-T cells stained with recombinant human CD22-Fc protein, with untransduced T cells as control
# Experimental: 0.2×10⁶ of CART-CD22.5, CART-CD22.13 and CART-CD22.14 sample cells cultured to Day 6 in Example 2 (FIG. 2) were taken, and, after staining the Fc segment of recombinant human CD22 protein, the expression level of CAR-CD22 protein on the surface of T cell membranes was analyzed by flow cytometry, with untransduced T cells (NT cells) used as control.
row,Binder,binding result
1,B1,binds
2,B2,binds
